Results as given in article PMC7804450.

Biological target: T1, tuberous sclerosis complex 1 (TSC1), human, subunit of the purified TSC complex (human), Q92574
T1 chain: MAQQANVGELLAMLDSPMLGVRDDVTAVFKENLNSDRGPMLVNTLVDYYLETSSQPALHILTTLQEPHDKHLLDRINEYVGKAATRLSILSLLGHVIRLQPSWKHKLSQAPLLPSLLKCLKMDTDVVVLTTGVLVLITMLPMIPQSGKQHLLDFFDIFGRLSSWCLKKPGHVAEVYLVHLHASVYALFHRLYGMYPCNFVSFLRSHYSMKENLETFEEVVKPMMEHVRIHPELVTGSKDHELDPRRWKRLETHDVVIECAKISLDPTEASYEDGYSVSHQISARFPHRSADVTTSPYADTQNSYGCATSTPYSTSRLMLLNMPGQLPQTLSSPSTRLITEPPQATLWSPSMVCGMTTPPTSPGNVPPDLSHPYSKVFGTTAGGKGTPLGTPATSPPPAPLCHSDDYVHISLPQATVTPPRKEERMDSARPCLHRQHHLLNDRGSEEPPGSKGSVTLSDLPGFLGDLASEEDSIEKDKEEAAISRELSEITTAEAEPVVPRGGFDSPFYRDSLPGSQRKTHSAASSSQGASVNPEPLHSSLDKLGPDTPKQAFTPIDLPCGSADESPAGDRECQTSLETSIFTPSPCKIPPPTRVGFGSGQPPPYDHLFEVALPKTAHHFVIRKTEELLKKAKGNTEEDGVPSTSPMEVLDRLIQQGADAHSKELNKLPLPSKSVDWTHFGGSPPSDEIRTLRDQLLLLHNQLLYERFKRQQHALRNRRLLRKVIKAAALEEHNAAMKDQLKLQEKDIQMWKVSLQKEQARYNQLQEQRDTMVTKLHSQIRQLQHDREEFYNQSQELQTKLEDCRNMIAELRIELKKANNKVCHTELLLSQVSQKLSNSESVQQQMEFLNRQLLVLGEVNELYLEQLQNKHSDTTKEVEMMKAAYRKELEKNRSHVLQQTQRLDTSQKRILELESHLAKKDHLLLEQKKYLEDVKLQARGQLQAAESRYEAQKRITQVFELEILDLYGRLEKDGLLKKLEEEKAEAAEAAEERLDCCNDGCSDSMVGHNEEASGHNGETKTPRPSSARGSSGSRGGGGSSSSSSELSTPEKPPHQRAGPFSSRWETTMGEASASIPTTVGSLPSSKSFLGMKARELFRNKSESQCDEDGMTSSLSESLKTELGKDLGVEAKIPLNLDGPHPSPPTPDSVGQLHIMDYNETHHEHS
Experiment: cryo-EM structure; human TSC complex (TSC1, TSC2, TBC1D7) co-expressed in Expi293F, purified, cross-linked by Grafix (glutaraldehyde); single particle reconstruction, 4.4 Å overall, core 3.6 Å, wings 3.9 and 4.1 Å
Conditions: remark: other sources report otherwise

B1: tuberous sclerosis complex 1 (TSC1), human, subunit of the purified TSC complex, Q92574 1-1164 (natural protein)
chain: MAQQANVGELLAMLDSPMLGVRDDVTAVFKENLNSDRGPMLVNTLVDYYLETSSQPALHILTTLQEPHDKHLLDRINEYVGKAATRLSILSLLGHVIRLQPSWKHKLSQAPLLPSLLKCLKMDTDVVVLTTGVLVLITMLPMIPQSGKQHLLDFFDIFGRLSSWCLKKPGHVAEVYLVHLHASVYALFHRLYGMYPCNFVSFLRSHYSMKENLETFEEVVKPMMEHVRIHPELVTGSKDHELDPRRWKRLETHDVVIECAKISLDPTEASYEDGYSVSHQISARFPHRSADVTTSPYADTQNSYGCATSTPYSTSRLMLLNMPGQLPQTLSSPSTRLITEPPQATLWSPSMVCGMTTPPTSPGNVPPDLSHPYSKVFGTTAGGKGTPLGTPATSPPPAPLCHSDDYVHISLPQATVTPPRKEERMDSARPCLHRQHHLLNDRGSEEPPGSKGSVTLSDLPGFLGDLASEEDSIEKDKEEAAISRELSEITTAEAEPVVPRGGFDSPFYRDSLPGSQRKTHSAASSSQGASVNPEPLHSSLDKLGPDTPKQAFTPIDLPCGSADESPAGDRECQTSLETSIFTPSPCKIPPPTRVGFGSGQPPPYDHLFEVALPKTAHHFVIRKTEELLKKAKGNTEEDGVPSTSPMEVLDRLIQQGADAHSKELNKLPLPSKSVDWTHFGGSPPSDEIRTLRDQLLLLHNQLLYERFKRQQHALRNRRLLRKVIKAAALEEHNAAMKDQLKLQEKDIQMWKVSLQKEQARYNQLQEQRDTMVTKLHSQIRQLQHDREEFYNQSQELQTKLEDCRNMIAELRIELKKANNKVCHTELLLSQVSQKLSNSESVQQQMEFLNRQLLVLGEVNELYLEQLQNKHSDTTKEVEMMKAAYRKELEKNRSHVLQQTQRLDTSQKRILELESHLAKKDHLLLEQKKYLEDVKLQARGQLQAAESRYEAQKRITQVFELEILDLYGRLEKDGLLKKLEEEKAEAAEAAEERLDCCNDGCSDSMVGHNEEASGHNGETKTPRPSSARGSSGSRGGGGSSSSSSELSTPEKPPHQRAGPFSSRWETTMGEASASIPTTVGSLPSSKSFLGMKARELFRNKSESQCDEDGMTSSLSESLKTELGKDLGVEAKIPLNLDGPHPSPPTPDSVGQLHIMDYNETHHEHS
Question: How did the stoichiometry N turn out when B1 was run?
Answer: Its stoichiometry N is 2.
